For data set [1], the system named is MDA-MB-231 cell surface (target molecule unidentified, whole cells) (Homo sapiens?). Kind of data set: flow.
For data set [2], the system named is MDA-MB-231 cell surface (target molecule unidentified, whole cells). Kind of data set: flow. Conditions: apparent Kd on whole cells.

Data on 9 sequences can be found in patent US9725713.

Regarding “TCCCGAGTGACGCAGCCCCCGGTGGGATTAATCGGTGGACACGGTGGCTGAC [T23-A30]”, the Kd in data set [1] (no binding at 250 nM) was > 1 µM.
Same read-out and setting: as for “TCCCGAGTGACGCAGCCCCCGGCGGGATTAATCGGTGGACACGGTGGCTGAC [C23-A30]”, the figure is > 1 µM.
“TCCCGAGTGACGCAGCCCCCGGCGGGATTNATCGGTGGACACGGTGGCTGAC [C23-P30]”: the Kd in data set [2] (n at 30 is P) was 0.16 µM.
“TCCCGAGTGACGCAGCCCCCGGTGGGATTGATCGGTGGACACGGTGGCTGAC [T23-G30]”: in data set [1] (no binding at 250 nM), the Kd is > 1 µM.
On to “TCCCGAGTGACGCAGCCCCCGGCGGGATTGATCGGTGGACACGGTGGCTGAC [C23-G30]”, for which the Kd in data set [1] (no binding at 250 nM) is > 1 µM.
For the sequence “TCCCGAGTGACGCAGCCCCCGGNGGGATTGATCGGTGGACACGGTGGCTGAC [Z23-G30]”, the Kd in data set [2] (n at 23 is Z) came out at 0.442 µM.
Consider “TCCCGAGTGACGCAGCCCCCGGZGGGATTPATCGGTGGACACGGTGGCTGAC [ZAP-2012 (Z23-P30)]”, for which the Kd in data set [2] (AEGIS DNA, Z at 23 (6-amino-5-nitro-3-(2'-deoxyribosyl)-2(1H)-pyridone), P at 30 (2-amino-8-(2'-deoxyribosyl)-imidazo[1,2-a]-1,3,5-triazin-4(8H)one), SEQ 7/16, DPBS, 5 mM MgCl2, glucose, tRNA, BSA, 10% FBS, library background subtracted) stood at 0.03 µM.
As to “TCCCGAGTGACGCAGCCCCCGGNGGGATTAATCGGTGGACACGGTGGCTGAC [Z23-A30]”, the Kd in data set [1] (n at 23 is Z, reduced binding at 250 nM, almost no binding in titration) was > 1 µM.
On to “TCCCGAGTGACGCAGCCCCCGGTGGGATTNATCGGTGGACACGGTGGCTGAC [T23-P30]”, for which, in data set [1] (n at 30 is P, no binding at 250 nM), the Kd was > 1 µM.
